The values that follow come from PMC11882963 (Nature Communications, 2024).

The term stoichiometry N denotes the number of molecules, sites or subunits per partner or assembly.

Numbering of substitutions follows the chain as printed.

The target in data set [1] is T1, MntR D27A (Bacillus subtilis, UniProt P54512 1-142, D27A).
T1 sequence: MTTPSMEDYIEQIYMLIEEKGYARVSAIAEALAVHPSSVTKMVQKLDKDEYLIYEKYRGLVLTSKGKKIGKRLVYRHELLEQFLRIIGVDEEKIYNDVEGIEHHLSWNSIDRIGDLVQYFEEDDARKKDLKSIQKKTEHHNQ
Nature of the data set: mass photometry.

In data set [2] the target is T2, MntR Y22A (Bacillus subtilis, UniProt P54512 1-142, Y22A).
T2 sequence: T1 sequence with Y22A, A27D
Nature of the data set: mass photometry.

Data set [3] deals with T3, MntR WT (Bacillus subtilis, UniProt P54512 1-142).
T3 sequence: T1 sequence with A27D
Nature of the data set: mass photometry.

For data set [4], the target named is T2, MntR Y22A. Nature of the data set: FSEC.
Data set [5] concerns the target T1, MntR D27A. Nature of the data set: FSEC.
In data set [6] the target is T3, MntR WT. Nature of the data set: FSEC.
The data set “mass photometry” deals with the molecule itself. Nature of the data set: mass photometry.
The target of data set [7] is T1, MntR D27A. Nature of the data set: mass photometry. This is another data set of the same source.
In data set [8] the target is T3, MntR WT. Nature of the data set: cryo-EM.
Data set [9] has as its target T3, MntR WT. Nature of the data set: FSEC. The source holds these as a separate data set.

B1: C84 (four consensus MntR sites) (dsDNA)
DNA 1: CCTTTTTTGCCTTAAGGAAACTTTTTTGCCTTAAGGAAACTTATTTGCCTTAAGGAAACTACTTTGCCTTAAGGAAACTCGAAG
DNA 2: CTTCGAGTTTCCTTAAGGCAAAGTAGTTTCCTTAAGGCAAATAAGTTTCCTTAAGGCAAAAAAGTTTCCTTAAGGCAAAAAAGG
With B1, the binding result with MntR D27A [1], in the data set with MntR Y22A [2] and in the data set with MntR WT [3] was “binds” throughout.

B2: P26 (mneP site 1) (dsDNA)
DNA 1: CAACGTTGCTATAGACCCACTCGAAA
DNA 2: TTTCGAGTGGGTCTATAGCAACGTTG
On to B2, for which the binding result with MntR Y22A [4], with MntR D27A [5] and with MntR WT [6] was “no binding” each time.

B3: Bacillus subtilis MntR, wild type (natural protein)
chain: T1 sequence with A27D
For B3, in the data set “mass photometry”, the “stoichiometry N” value was determined as 2.

B4: P84 (mneP regulatory region) (dsDNA)
DNA 1: CCTTTTTAGCATAGCTCCAACTTTTTTTCTGTCACCTTATTTATTAGTAAACAGGAAACAACGTTGCTATAGACCCACTCGAAG
DNA 2: CTTCGAGTGGGTCTATAGCAACGTTGTTTCCTGTTTACTAATAAATAAGGTGACAGAAAAAAAGTTGGAGCTATGCTAAAAAGG
For the molecule B4, the binding result with MntR D27A [7] and with MntR WT [8] was “binds” in each case.

B5: H26 (mntH operator) (dsDNA)
DNA 1: GATAATTTGCCTTAAGGAAACTCTTC
DNA 2: GAAGAGTTTCCTTAAGGCAAATTATC
For B5, the binding result with MntR Y22A [4], with MntR D27A [5] and in the data set with MntR WT [9] was “binds” in each case.
